These results are taken from patent US12359199B2, “Regulation of gene expression via aptamer-mediated control of self-cleaving ribozymes” (MEIRAGTX UK II LIMITED, priority 2016, dated 2025).

Several values for one entry are separate records, joined by “and”; a condition that tells them apart may be missing. Identical values can stand only once.

Holding throughout (type): cell-based
Data set [1] relates to firefly luciferase expression in HEK 293 cells. Nature of the data set: Firefly luciferase assay of HEK 293 cells transfected with twister ribozyme constructs (no ligand). The note with it: twister in 3′ UTR of firefly luciferase, compared to pFLuc control construct. The text has this: Plasmid constructs: The following primers were used to generate constructs GFP_wasp_No Sac 0HP or GFP_wasp_No Sac 3HP: forward primers NoSac_Fwd (5′ […]) and NoSac3HP_Fwd (5′ […]) and reverse primer MfeI Rev (5′ […]). GFP_wasp-twister vector was used as template and the PCR-amplified DNA fragments were digested with BsrGI and MfeI and cloned into pEGFP-C1 digested with BsrGI and MfeI enzymes. The EGFP gene in pEGFP-C1 was replaced with the firefly luciferase gene to generate the pFLuc vector using Gibson cloning strategy and cloning kit (NEB). The same strategy was used to generate constructs Luc_wasp_No Sac 0HP and Luc_wasp_No Sac 3 HP by replacing the EGFP gene in constructs GFP_wasp_no Sac 0HP and GFP_wasp_no Sac 3HP with the firefly luciferase gene.
Firefly luciferase assay of cultured cells: 24 hours after media change, plates were removed from the incubator, equilibrated to RT for several minutes on a lab bench, and then aspirated. Glo-lysis buffer (Promega, 100 μL, RT) was added, and the plates allowed to remain at RT for at least 5 minutes. […] Following a 5-minute incubation at RT, luminescence was measured using a Tecan machine with 500 mSec read time. The luciferase activity was expressed as mean relative light unit (RLU)±S.D.

The test system is the same in data set [2]. The data set is described as follows: Firefly luciferase assay of transfected HEK 293 cells treated with or without guanine or guanosine. The note with it: for reduction of luciferase gene expression in the presence of guanine: riboswitch and linker2A downstream of start codon, guanine vs untreated control. Here is the method: Firefly luciferase assay of cultured cells: 24 hours after media change, plates were removed from the incubator, equilibrated to RT for several minutes on a lab bench, and then aspirated. Glo-lysis buffer (Promega, 100 μL, RT) was added, and the plates allowed to remain at RT for at least 5 minutes. The well contents were mixed by 50 μL trituration, and 20 μL of each sample was mixed with 20 μL of bright-glo reagent (Promega) that had been diluted to 10% in glo-lysis buffer. 96 wells were spaced on an opaque white 384-well plate. Following a 5-minute incubation at RT, luminescence was measured using a Tecan machine with 500 mSec read time. The luciferase activity was expressed as mean relative light unit (RLU)±S.D. […]
Transfection and aptamer ligand treatment: HEK 293 cells were transfected as described in Example 1. Four hours after transfection, the media was aspirated, and new media with or without 500 μM guanine or 1 mM guanosine (Sigma) was added. Luciferase assay was performed 20 to 24 hours after guanine or guanosine treatment as described in Example 2. The reduction fold was expressed as the quotient of luciferase activity obtained in the absence of aptamer ligand divided by the value obtained in the presence of the aptamer ligand.
Oligos containing either a start codon or coding sequence for the first 10 amino acids of GFP and waspGua16 followed by a linker2A sequence were synthesized (IDT) and cloned into the pLuc vector using the Gibson cloning strategy and cloning kit (NEB). Transfection and luciferase assay of cultured cells were performed as described in Example 3. […]

For data set [3] the test system is unchanged. Nature of the data set: Firefly luciferase assay of transfected HEK 293 cells treated with or without theophylline. The procedure: Firefly luciferase assay of cultured cells: 24 hours after media change, plates were removed from the incubator, equilibrated to RT for several minutes on a lab bench, and then aspirated. Glo-lysis buffer (Promega, 100 μL, RT) was added, and the plates allowed to remain at RT for at least 5 minutes. The well contents were mixed by 50 μL trituration, and 20 μL of each sample was mixed with 20 μL of bright-glo reagent (Promega) that had been diluted to 10% in glo-lysis buffer. 96 wells were spaced on an opaque white 384-well plate. Following a 5-minute incubation at RT, luminescence was measured using a Tecan machine with 500 mSec read time. The luciferase activity was expressed as mean relative light unit (RLU)±S.D.
Oligos containing the twister ribozyme sequence linked with theophylline aptamer were synthesized (IDT), and cloned into pLuc vector using Gibson cloning strategy and kit (NEB). Construct sequences were verified by DNA sequencing (Genewiz).
Transfection and firefly luciferase assay: HEK 293 cells were transfected as described in Example 1. Four hours after transfection, the media was aspirated, and new media with or without 2 mM theophylline (Sigma) was added. […] The reduction fold was expressed as the quotient of luciferase activity obtained in the absence of aptamer ligand divided by the value obtained in the presence of the aptamer ligand.

The test system of data set [4] is mouse erythropoietin (Epo) gene expression in HEK 293 cells. The data set is described as follows: ELISA assay for measuring mouse Epo in culture media of transfected HEK 293 cells. The note with it: riboswitch in 3′ UTR of mouse Epo gene; ligand-treated vs solvent-treated control cells; supernatant 18 hours after treatment. The procedure: FIG. 3e. HEK 293 cells were transfected with the indicated constructs, and treated with 500 μM guanosine. DMSO was used as solvent control. Supernatant was collected 18 hours after guanosine treatment, the Epo was measured using ELISA kit. The results were expressed as mean±SD (n=2). Shown is the representative of two independent experiments.
ELISA assay for measuring mouse Epo in culture media: Supernatant was collected 18 hours after drug treatment, and an ELISA was performed using ELISA kit (R&D) according to manufacturer's instructions. The data was analyzed using 4-parameter curve fitting.
On the technique in general: In an ELISA, binding on a coated surface is turned into a signal by an enzyme label.

Setting [5] is: 500 μM guanine vs no guanine, riboswitch in 3′ UTR.

B1: Luc_wasp_No Sac 0HP: Firefly luciferase construct with wasp twister without SacII sequence in 3′ UTR (nucleic acid)
DNA: TCAGAGAGATCCTCATAAAGGCCAAGAAGGGCGGAAAGATCGCCGTGTAAACTTGTAATGCGGCCGTGTAAATAATTTACACGTCGGTCTCAAGCCCGATAAACGCAGAGAGCAAGGCGGCCGCCATACCACATTTGTAGAGGTTTTACTTGCTTTAAAAAACCTCCCACACCTCCCCCTGAACCTGAAACATAAAATGAATG
modifications: misc_feature 1..203 wasp_No Sac 0HP in pLuc
As for B1, in data set [1], the “fold reduction of luciferase activity” value was found to be 101 fold.

B2: 10aa_waspGua16: waspGua16 and linker2A inserted downstream of the coding sequence for the first 10 amino acids of GFP, in pLuc (nucleic acid)
DNA: ATGGTGAGCAAGGGCGAGGAGCTGTTCACCACGCCTTGTAATGCGGCATATAATCGCGTGGATATGGCACGCAAGTTTCTACCGGGCACCGTAAATGTCCGACTATTCGGTCTCAAGCCCGATAAACGCAGAGAGCAAGGCGAAGGCGGATCTTCAGGTAGTGGCGAGGGCAGAGGAAGTCTTCTAACATGCGGTGACGTGGAGGAGAATCCCGGCCCCGAAGACGCCAAAAACATAAAGAAAGGCCCGGCGCCA
modifications: misc_feature 1..255 10aa_wtWaspGua16 in pLuc
On to B2, for which the “reduction of luciferase gene expression in the presence of guanine” value in data set [2] is given as 68%.

B3: Luc_wasp_No Sac 3HP: Firefly luciferase construct with wasp twister with 3 bp stem (3HP) at P1 stem in 3′ UTR (nucleic acid)
DNA: TCAGAGAGATCCTCATAAAGGCCAAGAAGGGCGGAAAGATCGCCGTGTAAACGCCTTGTAATGCGGCCGTGTAAATAATTTACACGTCGGTCTCAAGCCCGATAAACGCAGAGAGCAAGGCGGCCGCCATACCACATTTGTAGAGGTTTTACTTGCTTTAAAAAACCTCCCACACCTCCCCCTGAACCTGAAACATAAAATGAATGC
modifications: misc_feature 1..207 wasp_No Sac 3HP in pLuc
notes: Firefly luciferase construct with wasp twister with 3 bp stem (3HP) at P1 stem in 3′ UTR
Turning to B3, the “fold reduction of luciferase activity” value in data set [1] came out at 254 fold.

B4: twister_theo_3: Theophylline aptamer linked by 3 bp stem to loop 2 of twister ribozyme, in pLuc (nucleic acid)
DNA: TCAGAGAGATCCTCATAAAGGCCAAGAAGGGCGGAAAGATCGCCGTGTAAACGCCTTGTAATGCGGCGCGATACCAGCCGAAAGGCCCTTGGCAGCGTTCGGTCTCAAGCCCGATAAACGCAGAGAGCAAGGCGGCCGCCATACCACATTTGTAGAGGTTTTACTTGCTTTAAAAAACCTCCCACACCTCCCCCTGAACCTGAAACATAAAATGAATGC
modifications: misc_feature 1..219 twister_theo_3 in pLuc
notes: Theophylline aptamer linked by 3 bp stem to loop 2 of twister ribozyme, in pLuc
Regarding B4, the “reduction in gene expression (luciferase activity) upon theophylline treatment” value in data set [3] (2 mM theophylline vs no theophylline) is 62%. Moreover, in data set [3] (no theophylline), the “luciferase activity in the absence of aptamer ligand (in words)” value is “the most robust luciferase activity”.

B5: Luci-waspGua16: Luciferase construct with 3 bp of stem connecting the guanine aptamer directly to twister loop 2; OFF riboswitch in 3′ UTR (nucleic acid)
DNA: TCAGAGAGATCCTCATAAAGGCCAAGAAGGGCGGAAAGATCGCCGTGTAAACGCCTTGTAATGCGGCATATAATCGCGTGGATATGGCACGCAAGTTTCTACCGGGCACCGTAAATGTCCGACTATTCGGTCTCAAGCCCGATAAACGCAGAGAGCAAGGCGGCCGCCATACCACATTTGTAGAGGTTTTACTTGCTTTAAAAAACCTCCCACACCTCCCCCTGAACCTGAAACATAAAATGAATGC
modifications: misc_feature 1..247 waspGua16 in pLuc
notes: Luciferase construct with 3 bp of stem connecting the guanine aptamer directly to twister loop 2; OFF riboswitch in 3′ UTR
Regarding B5, in data set [2] (setting [5]), the “fold reduction in luciferase activity upon guanine treatment” value is 15 fold and 12 fold; the “reduction in luciferase activity upon guanine treatment” value was determined as 92%. For the same molecule, the “reduction in luciferase activity upon guanine treatment (in words)” value in data set [2] (500 μM guanine, riboswitch in 3′ UTR) is given as “reduced luciferase activity”. Besides, the “fold reduction in luciferase expression upon guanosine treatment” value in data set [2] (guanosine at 1 mM as aptamer ligand, riboswitch in 3′ UTR) is 25 fold. In addition, the “reduction of Epo production” value in data set [4] was “approximately 30%”.

B6: ATG_waspGua16: waspGua16 and linker2A inserted downstream of ATG and upstream of remaining luciferase coding sequence (nucleic acid)
DNA: ATGACGCCTTGTAATGCGGCATATAATCGCGTGGATATGGCACGCAAGTTTCTACCGGGCACCGTAAATGTCCGACTATTCGGTCTCAAGCCCGATAAACGCAGAGAGCAAGGCGAAGGCGGATCTTCAGGTAGTGGCGAGGGCAGAGGAAGTCTTCTAACATGCGGTGACGTGGAGGAGAATCCCGGCCCCGAAGACGCCAAAAACATAAAGAAAGGCCCGGCGCCA
modifications: misc_feature 1..228 ATG_wtWaspGua16 in pLuc
For B6, in data set [2], the “reduction of luciferase gene expression in the presence of guanine” value worked out at 68%.
